Values belong to the binder of their own block, whether it stands above or below them. *1 amine or outer side, *2 acyl side, *3 side chain or, on linkers, in order; H or OH if unused. Side-chain parts run from the residue outwards. The star is where a group is joined. C18 diacid = O=C(O)CCCCCCCCCCCCCCCCC(=O)*; γGlu = O=C(O)[C@H](CCC(=O)[*:2])N[*:1]; Isovaleryl = CC(C)CC(=O)*; AEEA = NCCOCCOCC(=O)O
Biological target: T1, human neuropeptide Y2 receptor (human, UniProt P49146 1-381)
T1 construct: whole, on cells; also called hNPY2 receptor; hNPY2-R
T1 sequence (looked up): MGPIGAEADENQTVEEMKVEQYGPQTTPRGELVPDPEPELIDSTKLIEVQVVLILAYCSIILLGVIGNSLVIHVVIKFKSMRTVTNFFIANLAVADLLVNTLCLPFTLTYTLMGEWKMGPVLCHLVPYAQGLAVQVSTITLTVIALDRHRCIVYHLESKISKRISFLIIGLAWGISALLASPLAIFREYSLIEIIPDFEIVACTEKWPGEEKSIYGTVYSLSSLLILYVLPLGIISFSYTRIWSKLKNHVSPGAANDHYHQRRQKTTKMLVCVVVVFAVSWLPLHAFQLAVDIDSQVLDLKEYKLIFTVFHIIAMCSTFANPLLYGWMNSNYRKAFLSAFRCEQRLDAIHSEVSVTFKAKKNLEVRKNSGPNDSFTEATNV
Experiment: radioligand competition (125I-PYY(1-36)), hNPY2R membranes
Summary of the method: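 Commercial human Y2 receptor membranes (0.5 μg protein/well) were incubated with peptide for 2 h at room temperature in 50 mM HEPES, 5 mM MgCl₂, 1 mM CaCl₂, pH 7.4, with 0.2% ovalbumin. Bound radioligand was separated on PEI-soaked GF/C filters and counted by scintillation, and IC₅₀ came from nonlinear sigmoidal regression.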

Ki: 0.75 nM
B2: Compound 195 (peptide)
peptide: Isovaleryl-APEK([AEEA-AEEA-γGlu-C18 diacid])PEEDASPEALQRYYVELRHYYNWLTRQRY-NH2
SMILES: CC(C)CC(=O)N[C@@H](C)C(=O)N1CCC[C@H]1C(=O)N[C@@H](CCC(=O)O)C(=O)N[C@@H](CCCCNC(=O)COCCOCCNC(=O)COCCOCCNC(=O)CC[C@H](NC(=O)CCCCCCCCCCCCCCCCC(=O)O)C(=O)O)C(=O)N1CCC[C@H]1C(=O)N[C@@H](CCC(=O)O)C(=O)N[C@@H](CCC(=O)O)C(=O)N[C@@H](CC(=O)O)C(=O)N[C@@H](C)C(=O)N[C@@H](CO)C(=O)N1CCC[C@H]1C(=O)N[C@@H](CCC(=O)O)C(=O)N[C@@H](C)C(=O)N[C@@H](CC(C)C)C(=O)N[C@@H](CCC(N)=O)C(=O)N[C@@H](CCCNC(=N)N)C(=O)N[C@@H](Cc1ccc(O)cc1)C(=O)N[C@@H](Cc1ccc(O)cc1)C(=O)N[C@H](C(=O)N[C@@H](CCC(=O)O)C(=O)N[C@@H](CC(C)C)C(=O)N[C@@H](CCCNC(=N)N)C(=O)N[C@@H](Cc1c[nH]cn1)C(=O)N[C@@H](Cc1ccc(O)cc1)C(=O)N[C@@H](Cc1ccc(O)cc1)C(=O)N[C@@H](CC(N)=O)C(=O)N[C@@H](Cc1c[nH]c2ccccc12)C(=O)N[C@@H](CC(C)C)C(=O)N[C@H](C(=O)N[C@@H](CCCNC(=N)N)C(=O)N[C@@H](CCC(N)=O)C(=O)N[C@@H](CCCNC(=N)N)C(=O)N[C@@H](Cc1ccc(O)cc1)C(N)=O)[C@@H](C)O)C(C)C

Ki: 0.98 nM
B3: Compound 196 (peptide)
peptide: Isovaleryl-APAK([AEEA-AEEA-γGlu-C18 diacid])PPEDAEPEELQRYYVSLRHYYNWLTRQRY-NH2
SMILES: CC(C)CC(=O)N[C@@H](C)C(=O)N1CCC[C@H]1C(=O)N[C@@H](C)C(=O)N[C@@H](CCCCNC(=O)COCCOCCNC(=O)COCCOCCNC(=O)CC[C@H](NC(=O)CCCCCCCCCCCCCCCCC(=O)O)C(=O)O)C(=O)N1CCC[C@H]1C(=O)N1CCC[C@H]1C(=O)N[C@@H](CCC(=O)O)C(=O)N[C@@H](CC(=O)O)C(=O)N[C@@H](C)C(=O)N[C@@H](CCC(=O)O)C(=O)N1CCC[C@H]1C(=O)N[C@@H](CCC(=O)O)C(=O)N[C@@H](CCC(=O)O)C(=O)N[C@@H](CC(C)C)C(=O)N[C@@H](CCC(N)=O)C(=O)N[C@@H](CCCNC(=N)N)C(=O)N[C@@H](Cc1ccc(O)cc1)C(=O)N[C@@H](Cc1ccc(O)cc1)C(=O)N[C@H](C(=O)N[C@@H](CO)C(=O)N[C@@H](CC(C)C)C(=O)N[C@@H](CCCNC(=N)N)C(=O)N[C@@H](Cc1c[nH]cn1)C(=O)N[C@@H](Cc1ccc(O)cc1)C(=O)N[C@@H](Cc1ccc(O)cc1)C(=O)N[C@@H](CC(N)=O)C(=O)N[C@@H](Cc1c[nH]c2ccccc12)C(=O)N[C@@H](CC(C)C)C(=O)N[C@H](C(=O)N[C@@H](CCCNC(=N)N)C(=O)N[C@@H](CCC(N)=O)C(=O)N[C@@H](CCCNC(=N)N)C(=O)N[C@@H](Cc1ccc(O)cc1)C(N)=O)[C@@H](C)O)C(C)C

Ki: 0.87 nM
B4: Compound 197 (peptide)
peptide: Isovaleryl-APAK([AEEA-AEEA-γGlu-C18 diacid])PEADASPEELQRYYVELRHYYNWLTRQRY-NH2
SMILES: CC(C)CC(=O)N[C@@H](C)C(=O)N1CCC[C@H]1C(=O)N[C@@H](C)C(=O)N[C@@H](CCCCNC(=O)COCCOCCNC(=O)COCCOCCNC(=O)CC[C@H](NC(=O)CCCCCCCCCCCCCCCCC(=O)O)C(=O)O)C(=O)N1CCC[C@H]1C(=O)N[C@@H](CCC(=O)O)C(=O)N[C@@H](C)C(=O)N[C@@H](CC(=O)O)C(=O)N[C@@H](C)C(=O)N[C@@H](CO)C(=O)N1CCC[C@H]1C(=O)N[C@@H](CCC(=O)O)C(=O)N[C@@H](CCC(=O)O)C(=O)N[C@@H](CC(C)C)C(=O)N[C@@H](CCC(N)=O)C(=O)N[C@@H](CCCNC(=N)N)C(=O)N[C@@H](Cc1ccc(O)cc1)C(=O)N[C@@H](Cc1ccc(O)cc1)C(=O)N[C@H](C(=O)N[C@@H](CCC(=O)O)C(=O)N[C@@H](CC(C)C)C(=O)N[C@@H](CCCNC(=N)N)C(=O)N[C@@H](Cc1c[nH]cn1)C(=O)N[C@@H](Cc1ccc(O)cc1)C(=O)N[C@@H](Cc1ccc(O)cc1)C(=O)N[C@@H](CC(N)=O)C(=O)N[C@@H](Cc1c[nH]c2ccccc12)C(=O)N[C@@H](CC(C)C)C(=O)N[C@H](C(=O)N[C@@H](CCCNC(=N)N)C(=O)N[C@@H](CCC(N)=O)C(=O)N[C@@H](CCCNC(=N)N)C(=O)N[C@@H](Cc1ccc(O)cc1)C(N)=O)[C@@H](C)O)C(C)C

Second part, the binder before the results:

B1: Compound 192 (peptide)
peptide: Isovaleryl-APEK([AEEA-AEEA-γGlu-C18 diacid])PEEDAAPAELQRYYVSLRHYYNWLTRQRY-NH2
SMILES: CC(C)CC(=O)N[C@@H](C)C(=O)N1CCC[C@H]1C(=O)N[C@@H](CCC(=O)O)C(=O)N[C@@H](CCCCNC(=O)COCCOCCNC(=O)COCCOCCNC(=O)CC[C@H](NC(=O)CCCCCCCCCCCCCCCCC(=O)O)C(=O)O)C(=O)N1CCC[C@H]1C(=O)N[C@@H](CCC(=O)O)C(=O)N[C@@H](CCC(=O)O)C(=O)N[C@@H](CC(=O)O)C(=O)N[C@@H](C)C(=O)N[C@@H](C)C(=O)N1CCC[C@H]1C(=O)N[C@@H](C)C(=O)N[C@@H](CCC(=O)O)C(=O)N[C@@H](CC(C)C)C(=O)N[C@@H](CCC(N)=O)C(=O)N[C@@H](CCCNC(=N)N)C(=O)N[C@@H](Cc1ccc(O)cc1)C(=O)N[C@@H](Cc1ccc(O)cc1)C(=O)N[C@H](C(=O)N[C@@H](CO)C(=O)N[C@@H](CC(C)C)C(=O)N[C@@H](CCCNC(=N)N)C(=O)N[C@@H](Cc1c[nH]cn1)C(=O)N[C@@H](Cc1ccc(O)cc1)C(=O)N[C@@H](Cc1ccc(O)cc1)C(=O)N[C@@H](CC(N)=O)C(=O)N[C@@H](Cc1c[nH]c2ccccc12)C(=O)N[C@@H](CC(C)C)C(=O)N[C@H](C(=O)N[C@@H](CCCNC(=N)N)C(=O)N[C@@H](CCC(N)=O)C(=O)N[C@@H](CCCNC(=N)N)C(=O)N[C@@H](Cc1ccc(O)cc1)C(N)=O)[C@@H](C)O)C(C)C
Ki: 1.65 nM

B5: Compound 193 (peptide)
peptide: Isovaleryl-APEK([AEEA-AEEA-γGlu-C18 diacid])PEEDASEEEIQRYYVSLRHYYNWLTRQRY-NH2
SMILES: CC[C@H](C)[C@H](NC(=O)[C@H](CCC(=O)O)NC(=O)[C@H](CCC(=O)O)NC(=O)[C@H](CCC(=O)O)NC(=O)[C@H](CO)NC(=O)[C@H](C)NC(=O)[C@H](CC(=O)O)NC(=O)[C@H](CCC(=O)O)NC(=O)[C@H](CCC(=O)O)NC(=O)[C@@H]1CCCN1C(=O)[C@H](CCCCNC(=O)COCCOCCNC(=O)COCCOCCNC(=O)CC[C@H](NC(=O)CCCCCCCCCCCCCCCCC(=O)O)C(=O)O)NC(=O)[C@H](CCC(=O)O)NC(=O)[C@@H]1CCCN1C(=O)[C@H](C)NC(=O)CC(C)C)C(=O)N[C@@H](CCC(N)=O)C(=O)N[C@@H](CCCNC(=N)N)C(=O)N[C@@H](Cc1ccc(O)cc1)C(=O)N[C@@H](Cc1ccc(O)cc1)C(=O)N[C@H](C(=O)N[C@@H](CO)C(=O)N[C@@H](CC(C)C)C(=O)N[C@@H](CCCNC(=N)N)C(=O)N[C@@H](Cc1c[nH]cn1)C(=O)N[C@@H](Cc1ccc(O)cc1)C(=O)N[C@@H](Cc1ccc(O)cc1)C(=O)N[C@@H](CC(N)=O)C(=O)N[C@@H](Cc1c[nH]c2ccccc12)C(=O)N[C@@H](CC(C)C)C(=O)N[C@H](C(=O)N[C@@H](CCCNC(=N)N)C(=O)N[C@@H](CCC(N)=O)C(=O)N[C@@H](CCCNC(=N)N)C(=O)N[C@@H](Cc1ccc(O)cc1)C(N)=O)[C@@H](C)O)C(C)C
Ki: 3.81 nM
